Results on 9 molecules are retold here after patent US20240245805A1 (Orna Therapeutics, Inc., priority 2020, published 2024).

The data set concerns HEK293 cells. It counts as cell-based, human. Conditions: circular RNA encoding Gluc with the listed IRES (UTR truncated to 675 nt) transfected into HEK293 cells; supernatant after 24 hours.

B1: Hepatovirus G1 (nucleic acid, listed as Hepatovirus sp.)
DNA: GCAAGGGGTGGTTTTAACCTTGCACGCGTTTACCGTGCGTTAACGGTTTTCCATGTTTGTATGTCTTGTTTGTATTATGTGTTTTGTAAATATTAATTCCTGCAGGTTCAGGGTTCTTTAATCATGTTGGGCTGTACCCACACTCAACTTTTGGCCATAAGTGAGTTTCTTAACGAACCTTTTAACACAGGATGTTATTAGGGCCCAATATTTTCCCTGAGGCCTTCTTTGGCCTCTATTTTTTCCCCTTTTCTATCTCCTTGTATTCCGGGCTCACGTGATGCCAATGGACTGACCCATGCGCCCGTGGGGGTTAACTACTGGAGTAGCCAGTAGCTGTAGGTGCTAAAAGTCACGTACGTGTAAGACTGGACGAGACCTCTCAGCTATAACTGAAAGTAGTAAGTATGTCTGAACTTCTTGAAGGGGTAGGCTACGGGTGAAACCCCTTAGGTTAATACTCATATTGAGAGATACCTCTGATAGGTGAAGGTTTCCGGTAGAGGTGAGTTTAACGACAAAGCCTCTCAACGGATGTGGGCCCACCTCATCAGCAAGATGCTTTCATACCCAATACCGTAGGGGCTGGGTTGTTGAGTTCAGTCCCAAGCGTCCCTCCCGCAAGGTTGTAGGGGTACTCAGGGGCATTTAGGTTTCCACAATTAAACAAATACA
Turning to B1, the “Expression (luminescence from secreted Gluc protein)” value (shortened to “Expression”) came to 1.41E+05.

B2: Hepatovirus I (nucleic acid)
DNA: GGCTGCCTGTGTCTCAGGGGTAAGTACTGGGGCCGCGTTGACCGTGCGGTACGGTTATGCTTTTAGATTAGGATGTCCGTCTGTCCGGCACTCTCTTTTGCTTAAAATGGCCTTAAATCCATGGGAGGCGTAACCATGGGCCCTTTGTTACCTAGACATGATTGCATTGGGGGCCGTCCTTGGGGCTTAGGCCCCAGCCATTTCTCTTGACTCGTCTAAGAGTTTACTTCATCCTTTTCTTTACTTTATTTTCCAGGCTCTCAGCATGCCGACGGCTCTGACCACTGCGCCCGGTGGGGTTAACTGCATGATTAGCATGCAGCTGTAGGAGTTAAAAGTGCTGACAGGCCAATTCTGACGTAAGTCCACTCTATATTAACTTGATCAAGTAAGGTTGATTGATCTTTGTGAGAGGGTAGGCTACGGGTGAAACCCTCTAGGTTAATACTCATATTGAGAGATACCTCCAGAAGGTGAAGGTTGGCGGATATTGGTGAGTTCTTTTAGGACAAAAACCTTTCAACGCCTGTGGGCCCACCTCACTGGCACAATGCTTTCATCCCCAATTGTGATGGGTAGTTTGGACTGAAATCAGGAGTAACCTGCCCTACGAGTTTAGGGGTAGTTCAGGGGTATTTAGGCTTCCACATTTGATAGAGTTTATGAGAGTGAGCC
modifications: Hepatovirus I
Consider B2, for which the “Expression” value turned out to be 8.79E+05.

B3: Yancheng osbecks grenadier anchovy picornavirus (nucleic acid)
DNA: CCTTAGGGTCTGGAATGCGTCCTTTCTGGGCACTTCCACAATCCTAAGGTAATTTTCAACGCCAGCGATGGAGCGATATCCAAAGAACCTTTATGTTTTAGTTCGTCTTGTATGTTTATAAAATATAAAATTGGGATTAGCAACCCACAAAAACATTTTTGTTATTCTCACCACATGAGAGGGTGGTTAAACCTCTTCGTAACCTATCTTGCTTGATTGGCTACTTGGGCTAGATTTAGGACAACCTCTTTAGCAAGCCTAAATTACTCCTCGTACTTGCACCTGGTAACAGGCGTACCTGGAGGTTACGGTGGCGCTAACTTGGACTTCTCGTTAATTCGTGCAAGTTTAAATGATGCCTATTTTGAATACAAGAAAGTATGATAGTAACTTAGGGCGTGAAGTTCCGCTTAACATAAGGCAGTATAAGTACTAAGATAAGGTGTAAGACCTACCTTAATAACTGTTGTCTTTTCTCATGGTCTTTCCGTGGGAGCCCTTGCTAGGGGTAAAGTTAAGTATTCTCAAATAATTTTTCATTCAAACTCTTTCTCTCTGTTTT
modifications: lipid formulation; source: /note="Description of Unknown: Yancheng osbecks grenadier anchovy picornavirus sequence"
As for B3, the “Expression” value is given as 1.57E+06.

B4: Tremovirus B (nucleic acid)
DNA: TTCAAATGGCCCCTGGGTTGATACCCAGTGGTCATTTGGACACTTTGGTAAGGAGGTGTAATTATCCTTCCCATGTGGAACCTAGTGCTTAGGTTTACTTTATATGTTCTTTGTTTGTCCTTTGTACTTTCTATCGGGCAATCTTGTTGTTCAATACAATATGTATTTGAACTGCCTAAGATAAATTCAGTTTTCAACCAACCCCTCTCTTGGGGTTGTGTCTTTCTTTCTTTCTTATATCCTCTTAAGCTGACTTACTTGCTAATCCGACTCCTCGTCAACGGGAGGGTAAAGCAGTATCACTAGGGTATTGTGATGTAGGAGAAAAAGTAAGTAGAGATAGTGCATGTAACGAAAGTGACTTGGTACTTTAAACTCTCTTAATCCCAAAGTGTGGTATTGGTCATGTTGGAGTAGGCTACGGGTGAAACTCCTTCACATTTAGTAATGTGTTCACACGCTAACGCTACGGTAGATGACAGACTAGGTCTTATTCTCAACGTAGGGGGACGGGTGTATGTTCATGATTAGCCACATATTAAGGTTTTGAGGGGCTGAGTCATATAAGTATGTGCATTAATTTCTGGTACTGGTCCCTGGGGACTGGCCCTTTTCTAGGTTGATTTTAGTTTCCCCAATTTTTAAAAACTAATGAGATTTACGAC
modifications: Tremovirus B
In the case of B4, the “Expression” value is 1.31E+05.

B5: Hepatovirus H2 (nucleic acid, listed as Hepatovirus sp.)
DNA: GTCATGTTTCTCTTTAAGAACACTCAATTTTGGCCATAAGTGAGACTCTTGTCGAACCTTTCATGTCAGGACCATGTTAGGGCCATTATCCTTTTCCCTGGGGCATTCTTCTTGCCCCTGTTTCATCTTTCTATCATCTTTCTTCCGGGCTCTCACAATGCCAATGGAGCGACCGATGCGCACGTCGGGGTTAACCCATGGATTAGCCATGGGCTGTAGCTGCTAAAAGTTGTGACTCCTGAAGCATACTATCAATGGTAGTAGATGTAACTGAAACACTGAAGCTTCTCTGATCTTGAAAGAAGGGTAGGCTACGGGTGAAACCCTTCAGGTTAATACTCATATTGAGAGATACCTTTGGTAGGTTAACGTTGGCGGATAATGTTGAGTTTAACGACAATAAACATTCAACGCCTGTGGGCGAACCTCACCAATTTCATGCTTTGAAGTGAATGTGCGTAGGGTCTCTATCGGAGATGCTATGTGGATGGTGCCCTCCCTGGAAACAGGTTGTAGGGGTACTCAGGTGCACTTAGGTTTCCACATTTTAAAGATTTTTC
Take B5: the “Expression” value is 1.08E+05.

B6: Turkey Gallivirus M176 (nucleic acid, listed as Gallivirus sp.)
DNA: CCACTCGCACTTCCTGGATAGTGCGTTAGATATGCCCGACATATCGCTTCCAGGACCAAAGCCCCCCTTTTCTCTTTCCCAACCAGCTTCGCCACTCAAGCTGTAATTCCATGTCCGGTCTTTCCGGCCTTAGTATCATGGAAATGTGGTCGTGCTCAAATGAAATTGAGTTGACATTGATCAATGAAAGTTGCACTGAACTTTGCTAAACTGGCTAGCGCCACCTGGTGTGTGCCGTTGGTCTCCTCACATGGTAACATGTGCCAACGGGCCCGAAAGGCTAGTGGGCAATTACCGCTCCAAGGGAGGGGTACCCACCCCGACCTGAACAGCGGTAATGAAGCTCACCTCCCAGGCTCTGACCCCGAGAAGTTTAGTTATTTAGTAGGTGTAATTAGTACTTGTGATTGGTCAATTTGATAGTAGTTTGAAACGTTATGGATGAATGAGTAGACCCCCTGAAGGTACCCCATTACATGGGATCTGATCAGGGCCACATTCTGCGTGTCTCCCCGCACTTGTGGTTAAAACCATGAAAGTTCATCCCAAACAATCTTTTCCTCTTCTTTTTCTTTTAGTGGTGACAACCTACTGGATTGGTGATTACCAATCTGTACTAGTGTTGTATTAAGACTTGTTGTGTGGAGAAAATGGACTCTTTCAAGAAGATTTTTG
modifications: lipid formulation
As to B6, the “Expression” value is 4.37E+05.

B7: Hepatovirus D (nucleic acid)
DNA: CTTTGGATGCCCATAGTGCGGGGGTATAAATACCGCACTCCCTTTAGCTGTTCCGAGGGTATCGGAACCTATATGTTTGTTTTCTGTCTGTCTGTCAGCTTTATGTGTGCTCGTCCCCTTTAGGGCACTCATTTCAGCTTGCTTTCATTCTTTTCTTCCCCGGTTCTCACCTTACCGGAGGCACTGGCCGTTGCGCCCGGCGGGGTCAACCTAGTGATTAGCACTAGGCTGTAGGTGTCTAAAGTGGTGACATTAAGACTTGGTAACTGATTTCAGCACTGTTAACTGATGTTGGGGATGACTTGATTGATCTTCTGGAAGGGGTAGGCTACGGGTGAAACCCCTTATCTTAATACCACTATGTAGAGATAGATTCAGTAGGTTAAGGGCAGTGGATAAGGTTGAGTTCATTTTGGACAATAAACCTTCAACACTGGTGGACCCAATCTCACTGACCAGATGCTTTCTTGACTGATCCTTCAGAGGGGTGATTCTTCTGAATAGGTTGCCTTGACACTGATGCCTGAGACCCATTGGGTCGGGCCTTAAATCATGGAACTCCACTGGACTTTCATGGCCTAGCTTCTGCCTTAGACAGACTCTGGGGCCCCACGACCCTCTGGGCCCTTCGGGGTACTCAGGGGCATTTAGGTTTTTCCACAATTAAAAGAGTTA
modifications: Hepatovirus D
For B7, the “Expression” value was 1.47E+06.

B8: Grusopivirus A (nucleic acid)
chain: TGCCTGAGTAGGATTGTGAATTTAGGTATGAGAGGGTTAGCCAACCCATTCTGAACCATAATAGATACGTCAATCTGAATCCATCTAAATCTATCTCTTAGGCAGTGGTGCTGAAATATTGCAAGCTACTAGGGATAGACGTGATCTGATTCAAGAACCTATCTAATGTGGTGATGAGAAGGCTAGGTTTATCCATAGTAATCCCTTGTTCTGAACAGGCAATGCACATGCTCTAGTAGGATCTCGGGCTCTGCGATTGGCTCTAAACCGACCAATCCAGGTAGAGGCACTAAGTGTAGGACTTGCCAAAATGTATTACATGCTGGTACCGACTCACTAGTCTGGAAACTCCACACTGAAAGTGACTGGGGGGGGCCCCATCACATTTGTGCTACTGCTTGATAGAGTTGCGGCTGGTCAACTTGGATTGGTATAACCAGTTGAA
modifications: lipid formulation; Grusopivirus A
For B8, the “Expression” value was 1.09E+05.

B9: Grusopivirus B (nucleic acid)
chain: GCCATCCGTAGGTTCTGGTAAGGTTCCATCAACTGTTGGGGCGCTAGTTGCTATGACCGCATTCACGGACGGATGATTTATAGTATCACCCAATCCGGGCACAACTTCTTTAGCCACTTCTTCCACATTACTAAGGGCTCTCTTGCCGAGTTTCAACGTCTAGTCCACGACACGGACCTTCCTACTTTTCTATCTTCTTATTTTCTCTACTAAATTGGTATCTGGTACTGAAGATATGCGGATTGTGATTTTGTGCCTGTCTAAACTAACCCTATTCTAGGGTTAGGTGGGTACCATATACTAATGGTGAACAGGATTACCTATGTATCCATTAGTCCCTATGGATCTGGCGACCCACAAACTCATGTTCATAGAGAGGCTAAGCTGAGTGCTCGCCGAATAAGCATTGCTTCAGGTGCCGACTATTGTCTGGAAACCACTCAGTGATAGCTATAGGGGGGGGCCCCGTAGCATCTGCCTTACTGCCTGATAGGGTGGCGGCTGGTCCATGAACATGCAGTAACCAGTTGACTTGAC
modifications: lipid formulation; Grusopivirus B
As to B9, the “Expression” value is reported as 2.12E+05.
